The values below come from patent publication US20210221894A1 (DRAGONFLY THERAPEUTICS, published 2021).

For experiment [1], the target named is T1, full-length form of the extracellular portion of DLL3 expressed on transduced RPMI-8226 cells (Homo sapiens (Human), UniProt Q9NYJ7 27-492).
T1 construct: also called DLL3-D1-6; DLL3+ RPMI-8226 cells
T1 sequence: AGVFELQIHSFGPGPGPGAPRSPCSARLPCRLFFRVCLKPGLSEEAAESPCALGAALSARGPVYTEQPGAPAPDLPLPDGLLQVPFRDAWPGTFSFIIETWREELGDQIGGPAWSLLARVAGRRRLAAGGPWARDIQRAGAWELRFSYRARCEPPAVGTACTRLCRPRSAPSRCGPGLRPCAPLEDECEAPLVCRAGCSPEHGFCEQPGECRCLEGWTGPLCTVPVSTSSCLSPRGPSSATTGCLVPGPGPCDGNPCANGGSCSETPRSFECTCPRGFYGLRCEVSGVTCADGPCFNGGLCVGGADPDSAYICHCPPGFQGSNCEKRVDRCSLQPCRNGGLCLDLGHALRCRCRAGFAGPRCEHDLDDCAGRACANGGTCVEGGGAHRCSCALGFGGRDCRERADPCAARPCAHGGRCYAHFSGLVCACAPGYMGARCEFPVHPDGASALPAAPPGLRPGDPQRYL
Put plainly: flow cytometry, RPMI-8226 cells transduced to express full-length extracellular DLL3, fluorophore-conjugated anti-human IgG. As to the method: Anti-DLL3 mAbs were diluted and incubated with DLL3⁺ RPMI-8226 cells. The cells were analyzed by flow cytometry and binding of a mAb was detected using a fluorophore conjugated anti-human IgG secondary antibody.

Another experiment deals with T2, human DLL3-His (human, UniProt Q9NYJ7 27-492).
T2 construct: also called hDLL3
T2 sequence: T1 sequence
Put plainly: SPR (Biacore 8K), 37 C, antibody captured on anti-human Fc, DLL3-His 0.411-300 nM injected, 1:1 fit. The text has this:
The kinetics of binding of different humanized variants and parental murine 5E7 antibody to human DLL3-His was studied by Surface Plasmon Resonance using a Biacore 8K instrument. Briefly, anti-hFc and anti-mFc IgG proteins were covalently immobilized onto different channels of CMS chip to allow simultaneous analysis of human and murine antibodies. m5E7 was captured on the anti-mouse Fc channel and humanized variants were captured on the anti-human Fc channel at a desired capture level of […] in HBS-EP+ buffer supplemented with 0.1% BSA. Three buffer blanks and human DLL3-His (analyte) at concentrations 0.411-300 nM (in three fold dilutions) were injected over the surface with captured murine or humanized 5E7 for 300 second association time and let dissociate for 600 second at a flow rate of 30 μL/min. The surfaces were subjected to regeneration with three 20-second pulses of 10 mM glycine pH 1.70 at a flow rate of 100 μL/min between every concentration of analyte. The experiment was conducted at 37° C. Data were double referenced and a 1:1 fit model was applied to the sensorgrams in the Biacore Insight Evaluation software.
The kinetic parameters of human DLL3-His binding to murine and humanized variants of 5E7 antibody variants were calculated and shown in Table 39.

In another experiment the target is T3, recombinant human DLL1 (human, UniProt O00548 18-540, limits assumed).
T3 sequence (looked up): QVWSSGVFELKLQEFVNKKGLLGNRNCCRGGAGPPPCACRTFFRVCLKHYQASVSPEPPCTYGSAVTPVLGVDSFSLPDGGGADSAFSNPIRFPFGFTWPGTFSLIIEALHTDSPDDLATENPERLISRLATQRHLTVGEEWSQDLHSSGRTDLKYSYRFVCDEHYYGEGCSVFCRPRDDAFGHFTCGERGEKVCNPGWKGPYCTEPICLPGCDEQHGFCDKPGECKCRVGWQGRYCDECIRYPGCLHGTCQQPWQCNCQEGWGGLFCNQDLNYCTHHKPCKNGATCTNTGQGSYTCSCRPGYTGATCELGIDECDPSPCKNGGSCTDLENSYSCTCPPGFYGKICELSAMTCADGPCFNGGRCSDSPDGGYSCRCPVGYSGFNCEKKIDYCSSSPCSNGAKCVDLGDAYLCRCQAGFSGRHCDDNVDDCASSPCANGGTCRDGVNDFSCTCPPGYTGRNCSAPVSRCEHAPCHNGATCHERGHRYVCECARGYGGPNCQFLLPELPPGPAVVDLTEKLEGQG
Put plainly: ELISA, plate-bound recombinant human DLL1 (1 µg/mL), anti-mouse IgG-HRP/TMB, % of positive control max. On the procedure: (§1) To investigate the binding of anti-DLL3 antibodies to human DLL3, wells of high binding flat-bottom plates were coated with recombinant human DLL3 diluted to 0.5 μg/ml. To assess cross-reactivity of the antibodies to DLL1/DLL4, which are closely related family members to DLL3, plates were coated with recombinant human DLL1 diluted to 1 μg/ml, or human DLL4 diluted to 0.5 μg/ml. […] Binding was detected using anti-mouse IgG-HRP and 3,3′,5,5′-Tetramethylbenzidine (TMB) substrate. Signals were normalized to the corresponding positive control antibody.

Experiment [2] addresses T4, recombinant human DLL3 (ELISA coat) (human, UniProt Q9NYJ7 27-492).
T4 sequence: T1 sequence
Put plainly: ELISA, plate coated with recombinant human DLL3 0.5 µg/ml, anti-mouse IgG-HRP. As to the method:
as §1
Table 38 lists the calculated EC₅₀ based on the binding data from FIG. 24.

The target of experiment [3] is T5, extracellular domain (ECD) of human DLL3 (AdipoGen Life Sciences) (human, UniProt Q9NYJ7 27-492).
T5 construct: Bought and further purified by size exclusion chromatography; also called hDLL3 ECD; DLL3 ECD
T5 sequence: T1 sequence
Put plainly: SPR (Biacore 8K), 37 C, antibody captured on anti-mouse Fc, DLL3 ECD injected, 1:1 fit. The text has this: The binding kinetics of different anti-DLL3 antibodies to recombinant proteins of different domains of human DLL3 were studied by surface plasmon resonance (SPR) using a Biacore™ 8K instrument. These anti-DLL3 antibodies were produced from mouse hybridomas, and each included a heavy chain variable region and light chain variable region described herein. Briefly, antibodies recognizing human IgG Fc and antibodies recognizing mouse IgG Fc were immobilized on different channels of a Biacore™ 8K chip to allow simultaneous analysis of human and murine anti-DLL3 antibodies. Murine anti-DLL3 antibodies were captured on the anti-mouse Fc channel of the Biacore chip. The human anti-DLL3 antibody from Stemcentrx (San Francisco, Calif.) was used as a control and was captured onto anti-human Fc channel of the Biacore™ chip. Different concentrations of DLL3 ECD, DLL3 N-terminal domain, EGF2-6, EGF3-6, EGF4-6, or EGF5-6 domains of DLL3 were injected. Experiments were performed at 37° C. Biacore™ 8K evaluation software was used for all data analysis. To obtain kinetic rate constants double-referenced data were fit to a 1:1 interaction model using Biacore™ 8K Evaluation software (GE Healthcare, Marlborough, Mass.). The equilibrium binding constant KD was determined by the ratio of binding rate constants kd/kₐ.
Table 36 lists the calculated binding kinetics (KD). […] Stemcentrx anti-DLL3 antibody was used as a control.

B1: humanized anti-DLL3 antibody h5E7 (antibody, V domains shown)
VH: QVQLVQSGAEVKKPGASVKVSCKASGFNIKDDYIHWVRQAPGQGLEWMGWIDSENGDTEYASKFQGRVTITADTSANTAYMELSSLRSEDTAVYYCATSSYYSYDLFVYWGQGTLVTVSS
VL: DVQMTQSPSSLSASVGDRVTITCKSSQSLLHSNGKTYLNWLQQKPGQAPKLLLYLVSKLESGVPSRFSGSGSGTDYTLTISSLQPEDFATYYCLQTTHLYTFGQGTKLEIK
notes: Expressed as IgG1 mAb: human IgG1 CH1-CH2-CH3 and human constant kappa
In the case of B1, in experiment [1], the “EC50 (read off the curve)” value is about 7 nM. Also, in the experiment with human DLL3-His, the Kd came out at 8.72 nM, the koff is 0.00697 s⁻¹ and the kon came out at 799000 M⁻¹ s⁻¹.

B2: anti-DLL3 antibody clone 9E6 (antibody, V domains shown)
VH: QLQLVQSGPELMRPGETVKISCKASGYTFTTYGMNWVKQAPGKGLKWVGWINTYSGVPTYADDFKGRFAFSLESSASTAFLQINNLKDEDTATYFCARFGNYGFDCWGQGTTLTVSS
VL: DIVMTQSPSSLSVSAGEKVTMSCKSSQSLLNSGNQKNYLAWYQQKPGQPPKLLIYGASTRESGVPDRFTGSGSGTDFTLTISSVQAEDLAVYYCQNDHIYPYTFGGGTKLEIK
notes: Murine antibody from a mouse hybridoma
Consider B2, for which the binding result with recombinant human DLL1 is given as “no binding”. The EC50 in experiment [2] worked out at 0.45 nM. Also, in experiment [3], binding was characterised by a dissociation constant (Kd) of 5.11 nM, the koff was 0.00208 s⁻¹ and the kon is 408000 M⁻¹ s⁻¹.

B3: chimeric protein of murine 5E7 variable regions and human IgG1/Igκ constant regions (antibody, V domains shown)
VH: EVQLQQSGAELVRPGASVKLSCTASGFNIKDDYIHWVKQWPEQGLEWIGWIDSENGDTEYASKFQGKATMTADTSSNTAYLQLSGLTSEDTAVYYCTTSSYYSYDLFVYWGQGTLVTVSA
VL: DVLMTQTPLTLSVPIGQPASISCKSSQSLLHSNGKTYLNWLLQRPGQSPKLLIYLVSKLESGVPDRFSGSGSGTDFTLKISRVEAEDLGVYYCLQTTHLYTFGGGTKLEIK
notes: VH cloned onto human IgG1 CH1-CH2-CH3, VL onto human constant kappa
Consider B3, for which, in experiment [1], the 50% effective concentration (EC50 (read off the curve)) was about 3 nM.
